23 sequences from a protein production outcome set (Wang et al. 2014) can be followed below.

A short description of the data set: label from the status in PepcDB records.
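Also: failed if final PepcDB status was selected cloned or expressed and not failed if soluble or beyond.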

Take “MTSSDLPVMLFAAGFGTRMGDLTRTRPKPLIEVAGRPLVDHTLDLARAVSPPRIVANLHYLAPLLAAHLAPQGVLLSHEQPDILDTGGGLRQALPLLAAETVFTANSDAIWSGPNPFALLAEAWEPARMDALLMCVPVGQAIGHAGHGDFSRDAQGRIERGPGLIYGGVQIVKTGGLGDFDMPAFSLNLLWNRIGAAGRLFALEYPGRWCDVGHPGGIALAEEMLRDVLEHHHHHH”: the protein production result is listed as “not failed”.

For “MTSTTTAPLVGLVMGSDSDWPVMEAAADALAEFGIPFEADVVSAHRMPTEMIRYGQTAHERGLRVIIAGAGGAAHLPGMLASVTPLPVIGVPVPLKTLDGMDSLLSIVQMPAGVPVATVSIAGARNAGLLAVRILASGTDDLASKLRADLLTFAQELNDVATKKGENLRHKVEEVFSPANASARSSR”, the protein production result is “failed”.

For the sequence “MTSTTTSQQELFRFLEDRFACAQACTECARACALRASLVDPDGTENQELVRRRGIMCAEVCDATCRVLSEQNQVDEAAIRAQLEWCRQVCLESAHVFDDHPGAEESAQACRDCARACGEFLATLR”, the protein production result is given as “failed”.

As to “MTSVESTAHIEKRFIELKNIWFIIASLCYVAAIGFIIAYFVGGYSPYISIAVMWGCIGSLDMILGILRRKKEK”, the protein production entry was “failed”.

In the case of “MTSVLEKRHAPKQRAEAQRALTGEDFVGDEAPGKDLPSRPRLDPAEFIKANMGLVPVLALPEIRFYTAHPGSGLRRLVDPEDDADADDDTPEPQPPYWAYAWAGGAVLARHILNHPKTVAGRRVLDLGAGSGIVGIAAAKAGASEVIAAEIDRNGVAAIGLNAAANGVEITIVHQDITMGSPPAVDLVLAGDVFYGREVALRVIPFLDRCLAAGIEVLVGDPRRHDLPLSRLRLLAEYQVPDFGDAKDAALKPSGVFRFEAETAPALAGAIKPSP”, the protein production entry is “failed”.

As for “MTSVRGIAPLPSKKSSDRQKRLAMSTFERYLTLWVALCIVVGIGLGHLMPGAFQVIGAAEIAKVNLPVAALIWLMIIPMLVRIDFAALGRVREHWRGIGVTLFINWAVKPFSMAALAWLFVGYLFRPYLPADQINSYIAGLIILAAAPCTAMVFVWSNLTKGEPHFTLSQVALNDTIMVFAFAPIVGLLLGLSAITVPWDTLVLSVVLYIVVPVIIAQGLRRWALASGGEAQLQRLLGIFQPLSLVALLATLVLLFGFQGEQIIRQPLVIALLAVPILIQVYFNAGLAYLLNRLSGEQHCVAGPSALIGASNFFELAVAAAISLFGFESGAALATVVGVLIEVPVMLTVVAIVNRSKRWYEADQRAPVARTPG”, the protein production entry is “failed”.

In the case of “MTSYTAAGLGELVQRDGALVNGRIYTDPEIFGLEMERIFSKVWVYVGHESQVANPGDYMTGYLAQQPIILTRDRAGQIHVLFNRCTHRGAKIVNRERGNERLLTCMYHGWAFGHDGELRGIPLKKDFPAEAVEPCKASLARPPRVDAYRGFIFASLNPDVEPLRDYLGAAASGIDEIVDRAPAGTIRLSAGCHRYIYEGNWKLQTDNLGDMYHPVACHSSTVDEDGKQFKRRPGDEGGRAAFLGADGEPIVIQTGVRGFLRGHSSEASLFGANDIVKEETRQRGGIIDEYRSLLIEQHGVEKTDEILKNRRHSMTLFPNLDVLMVQTSVRVVIPLAYNRTEVRIYPVHLDGAPDELNRQIIKFLNITHSAASFIQTDDLEAFKRQQEGLAARSPQWLIVARGQGSEIDEGNGAYFGPRASEVGQRMRHQYWRELMMAE”, the protein production result was “failed”.

On to “MTTDQHQEILRTEGLSKFFPGVKALDNVDFSLRRGEIMALLGENGAGKSTLIKALTGVYHADRGTIWLEGQAISPKNTAHAQQLGIGTVYQEVNLLPNMSVADNLFIGREPKRFGLLRRKEMEKRATELMASYGFSLDVREPLNRFSVAMQQIVAICRAIDLSAKVLILDEPTASLDTQEVELLFDLMRQLRDRGVSLIFVTHFLDQVYQVSDRITVLRNGSFVGCRETCELPQIELVKMMLGRELDTHALQRAGRTLLSDKPVAAFKNYGKKGTIAPFDLEVRPGEIVGLAGLLGSGRTETAEVIFGIKPADSGTALIKGKPQNLRSPHQASVLGIGFCPEDRKTDGIIAAASVRENIILALQAQRGWLRPISRKEQQEIAERFIRQLGIRTPSTEQPIEFLSGGNQQKVLLSRWLLTRPQFLILDEPTRGIDVGAHAEIIRLIETLCADGLALLVISSELEELVGYADRVIIMRDRKQVAEIPLAELSVPAIMNAIAA”, for which the protein production result is listed as “failed”.

As for “MTTHITKAPAYWSRDAIWPGIVAVGPMLPGTLAFGMAFGALCAQKNFTLAEVEVMMATVYGGLSQFVAVQAWPDQLTPSTIAALALLTTTVNIRFFLMTASMRPWFGTLPAWQAYPPLLLVTDGGWLAAMRYREHGGANAWFYLGGALVLYLVWLVSAIPGFLLAEQLADPKKFGVDIAMPAFFAALLVPAWKGPRRAIPWLVSGIVALTVHWLIPGYWFIIAGALSGAITAGLMDEPPVATSHAGHSS”, the protein production result is “failed”.

“MTTLLRNETPRRCAFWRGARGILAFVLALALTIQGVAPAWAFLGLGGFTIKDEVELGRKFDVLIKSRMPLVEDPEVKVYVQDIVARLLEQAPPQPFDFKTNVLLHNSLNAFASPGGFIFVHTGLVMQMDHEAEVAGVLAHELAHATQRHIAGRIEKMQTTSILSMAGALAGAFLGGGSGKGAAMAGSIAAGQSAMLNYSRVDETEADEIGLRYLIAAGFRPEGMVGAFEKIRKKQWAMGTDIPSYLSTHPAVNERINSLSARIAALPADIRSRPNDDARFLRVRTICRARYGDPAVSERLFADAPAGDCLAQLGKAILFSRQNRVAEATAAFDKALQCSPKDQLIWREAGRFHYTKGDKGRAAAMLQRATLMNPDDYMALFFYARLLADSGQPQKSYQYFDEVLRRLPEDAEVHYYYGRVLGASGQPFKAYLHLAYSSLYSNDKHKTESFEEQARAQARTPEEMAELERFAATYQERKAFW”: the protein production entry is listed as “failed”.

With “MTTLRTLMAVSLVLNLAACGFKLRGQVSELPFERVYITAPAGLTIGSDLERVISTHTRAKVVNKAEKSEAIIQIVHAIREKRILSLSESGRVREFELVYRVAARLLDAHNAELASLQEIRLTRILPFLDAQELAKAAEEEMLYKDMQKDAVQQILRQVSAVTSAGLEHHHHHH”, the protein production entry is on record as “not failed”.

As for “MTTTQPEAKDRISSLPVPDATQVPEGVRKLWAKAEANIGFVPNVFRAQAVNGEQFLAWWNYFNLLLNKEGYLTNAERELVAVVVSGVNRCLYCAVSHGAALREFLGDPQKADAVAVNWRHADLTEREQALAAYAEKLTRHPAEVTAADLEPLRAVGLDDHQIMELVQVIGMFNLTNRVSSALGFVPNPEYYRQAR”, the protein production entry is reported as “not failed”.

Consider “MTTTTNKAWRTICKATELVKDSGISALIANSAGEDEQIAIFHIPNSEEKIYAVGNYDPIGQANVLYRGLVGCIDDEPVVSSPLYKQHYSLKTGRCLQEDQTIAVYDIRIENEQVQLFYLEHHHHHH”, for which the protein production result was “failed”.

Take “MTTVIVGAGRIGSSVIELAADANIGVTVIEQEHERAHEFKADENCHVIHDDATERETLHEAEVGNADAIIATTDQDTTNLMVLMLARELGCETLVSVVHAEENIPLFRQLGATIIENPQRLIAEYLFRGTHDPGIQGFMHVGDRDGGAEVFEISVADGAPIIGKTLEQADVAGFLPPSMVVVAVERDGEIIIPRGNTQIETDDLVTVFSKEGIINEVVEPFKPEAKRTGDSDTE”: the protein production result is reported as “failed”.

“MTTVRTRIAPSPTGDPHVGTAYIALFNLCFARQHGGQFILRIEDTDQLRSTRESEQQIYDALRWLGIEWDEGPDVGGPHGPYRQSERGHIYKKYSDELVEKGHAFTCFCTPERLDAVRAEQMARKETPRYDGHCMHLPKDEVQRRLAAGESHVTRMKVPTEGVCVVPDMLRGDVEIPWDRMDMQVLMKADGLPTYFLANVVDDHLMGITHVLRGEEWLPSAPKLIKLYEYFGWEQPQLCYMPLLRNPDKSKLSKRKNPTSITFYERMGYLPQALLNYLGRMGWSMPDEREKFTLAEMIEHFDLSRVSLGGPIFDLEKLSWLNGQWIREQSVEEFAREVQKWALNPEYLMKIAPHVQGRVENFSQIAPLAGFFFSGGVPLDASLFEHKKLDPTQVRQVLQLVLWKLESLRQWEKERITGCIQAVAEHLQLKLRDVMPLMFPAITGHASSVSVLDAMEILGADLSRYRLRQALELLGGASKKETKEWEKIRDAIPG”: the protein production entry is given as “failed”.

For the sequence “MTVAIPDLRVCANLTGKTLLICVGAAKCATSWLHDYLGSRPEVTVSPLKELHFFDSKFPEHALGDADGLALARLSFQLGQAGDAVANLRHRAIFQASLDRAQMIYDDNAYFGHFARLCGPQTRCFCDLTPSYSAIGAEGFAYMKRFCASQDIEVKILFLMRDPVRRFWSQLRHLQQMNPVNDVASKWRHALTAPALLARADYRGIVLALEQVFPSANLLCLFYESLFEGDDAIRRLCRFIGIPFAPAATGQRHNETTVRLPLSDDARDAFRHLLAPQYDFCRERFGRSIPGSWLA”, the protein production entry was “failed”.

As for “MTVAVIGAHGGIGRRLLPRLNEAGHDPIGVVRSEDQFAAIRDRGAEPRLGDLEGEVASALDGADAVVFTAGAGGSTGWDKTILVDLWGAERAVHACEEKEIDRFVMVSSRGAGDPESRQGPIKPYIVAKHVADRTLQRSSLDETILRPTRLTDAEGTGRVAAYVDTDPDAGDPIPRADVAQAVVQCLADDNTVGHAITLYGGDTPIGEALRPSGLEHHHHHH”, the protein production result is on record as “failed”.

For the sequence “MTVAYIAIGSNLASPLEQVNAALKALGDIPESHILTVSSFYRTPPLGPQDQPDYLNAAVALETSLAPEELLNHTQRIELQQGRVRKAERWGPRTLDLDIMLFGNEVINTERLTVPHYDMKNRGFMLWPLFEIAPELVFPDGEMLRQILHTRAFDKLNKW”, the protein production entry was “failed”.

Take “MTVEQNVLQQSAAQKHQQTFLNQLREITGINDAQILQQALKDSNGNLELAVAFLTAKNAKTPPQEET”: the protein production entry is given as “not failed”.

“MTVSQDILLTDHFKQWIEIFKKGKVSDGTYRKYLYTLSVLKKHFSTATIKTMNRVKYQEMLNEFAEGHSDSSVKQINVHVRASLENLLDDFIIKNDFTKGLEHHHHHH”: the protein production result was “failed”.

Take “MTVTDHILPTATNGRPPGLIIAAPSTNSGKTTVTLALHAALRRRSLTVQPYKCGPDYIDPAFHEIAAGRPCYNLDSWAFGQDRITYLLDAAAGADLCLAEGVMGLFDGGSARGAWGNGATADIAAFTGWPVVLVIDVAGQAQSAAALALGFARYRSDVRIAGVILNNVASARHEALVRDGFAAQDIPVLGGFERQRDLTLKNRHLGLVQARETARLDIRLQQLADSAVRGIDLDALIRAAQPARPIASTIRPLTPPGQRIALAHDDAFSFIYPHLTAGWRAAGAEIVPFSPLNDEGPDPSCDAAWLPGGYPELHAGRLAAATRFKAALGAFAETRAVHGECGGYMTLGAGLIDADGTRHAMAGLLGLETDFASRKLHLGYRLATLHADAAGKAAGSVLRGHEYHYARVVTVADEPLAEIRDPAGQLTDETGSRRGHVTGTFFHLIDVAEEAIALEHHHHHH”: the protein production entry is “failed”.

Take “MTVVVERQISHPPEKLWRALTQPHLIEEWLMKNDFKPAVGHRFNISADWGGVLDCEVLAVEPNKTLSYTWNLAHQDPAFDLRSVVTFTLTPTPTGTHLRMEQSGFRPDQRRAYGGAKMGWPQFFEKLEQLLDRTDLEHHHHHH”: the protein production entry is reported as “not failed”.

As for “MTVVWINGAFGAGKTTTARELIELIPNSTLFDPEVVGGALAHLLPPKRLAEVGDFQDLPIWRRLVIDTAAALLADLGGTLVVPMTLLRQEYRDEIFGGLAARRIEVRHILLAPAETILRERIASREVPRDLPDGELRTRQWSYDHIEPYRAALASWLTADAHPVDTGALTPYEAAARVAEAVGSGAVPACEIVQTPEPTGETVAAGVLLFDERDRVLLVDPTYKPGWEFPGGVVEPGEAPARAGMREVAEETGLSLRDVPALLVVDWEPPAPPAYGGLRLLFDGGRLDAADAGRVLLPGPELRDWRFATEDEAAGLLPPVRYERLRWALRARERGAAHYLEAGTPVGLEHHHHHH”, the protein production entry is listed as “failed”.
